# Laboratory results taken from patent US20220380463A1 (Adimab, published 2022).
# Residue numbers refer to the chain shown, from its start.
# T1: Cynomolgus CD3εδ Fc heterodimer (Cy CD3ε Fc / CD3δ Fc-HIS) (cynomolgus, UniProt Q95LI8 22-100)
# T1 chain 1: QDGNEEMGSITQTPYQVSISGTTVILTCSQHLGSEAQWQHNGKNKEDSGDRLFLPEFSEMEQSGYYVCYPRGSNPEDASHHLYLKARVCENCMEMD
# T1 chain 2: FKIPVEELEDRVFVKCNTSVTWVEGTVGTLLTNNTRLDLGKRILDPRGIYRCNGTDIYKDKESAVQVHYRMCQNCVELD
# B1: SAD10320_P02_G06 (ADI-57371) (antibody, V domains shown)
# VH: QVQLVQSGAEVKKPGASVKVSCKASGFNIKDYYMHWVRQAPGQRLDWMGWIDLENANTIYDAKFQGRVTITRDTSASTAYMELSSLRSEDTAVYYCARDAYGRHFYDVWGQGTLVTVSS
# VL: DIVMTQSPDSLAVSLGERATINCKSSQSLLNARTRTNYLAWYQQKPGQPPKLLIYWASTRESGVPDRFSGSGSGTDFTLTISSLQAEDVAVYYCKQSYSRRTFGGGTKVEIK
# notes: IgG; also called Ab88
# B2: LAD9953_P01_H01 (ADI-57437) (antibody, V domains shown)
# VH: B1 VH with D46E, H104Y
# VL: B1 VL with N31H, R35H, T36K
# notes: IgG; also called Ab167
# B3: LAD9959_P01_E04 (ADI-57441) (antibody, V domains shown)
# VH: B1 VH with D46E, H104Y
# VL: B1 VL with R35H, T36H
# notes: IgG; also called Ab172
# B4: LAD9955_P01_G02 (ADI-57439) (antibody, V domains shown)
# VH: B1 VH with D46E, H104Y
# VL: B1 VL with N31H, R35G, T36K, Y38H
# notes: IgG; also called Ab170
# B5: LAD9964_P01_C07 (ADI-57444) (antibody, V domains shown)
# VH: B1 VH with D46E, H104Y
# VL: B1 VL with R35H, T36K
# B6: LAD9954_P01_B02 (ADI-57438) (antibody, V domains shown)
# VH: B1 VH with D46E, H104Y
# VL: B1 VL with N31H, R35G, T36H
# notes: IgG; also called Ab168
# Target: T1, Cynomolgus CD3εδ Fc heterodimer (Cy …)
# Test: BLI (Octet), IgG on AHC sensor, pH 7.4
Kd,koff,kon,Binder
64.8 nM,0.0219 s⁻¹,338000 M⁻¹ s⁻¹,B1
86.7 nM,0.0209 s⁻¹,242000 M⁻¹ s⁻¹,B2
89.6 nM,0.0189 s⁻¹,210000 M⁻¹ s⁻¹,B3
127 nM,0.0187 s⁻¹,147000 M⁻¹ s⁻¹,B4
4.71 nM,0.00146 s⁻¹,310000 M⁻¹ s⁻¹,B5
33.9 nM,0.0107 s⁻¹,316000 M⁻¹ s⁻¹,B6

# Target: T1, Cynomolgus CD3εδ Fc heterodimer (Cy …)
# Test: BLI (Octet), IgG on AHC sensor, pH 6.0
row,koff,Binder
1,0.00387 s⁻¹,B1
2,0.0176 s⁻¹,B2
3,0.00174 s⁻¹,B3
4,0.0282 s⁻¹,B4
5,0.000637 s⁻¹,B5
6,0.0303 s⁻¹,B6
